Reference: publication doi:10.1101/2025.10.29.685377
Read-outs that look alike come from different tables or passages of the source.

Experiments:
[1] = target: Alka channel (Drosophila melanogaster alkaline taste receptor Alka) (Drosophila melanogaster); assay: cryo-EM structure
[2] = target: Alka channel (Drosophila melanogaster alkaline taste receptor Alka) (Drosophila melanogaster); assay: cryo-EM structure; remark: listed apart in the source

## Alka channel (Drosophila melanogaster alkaline taste receptor Alka)
[1]
  stoichiometry N: 5
[2]
  stoichiometry N: 5
